Reference: patent US20030216563A1 (Scripps Research, published 2003)

T1: Cdc25 (Schizosaccharomyces pombe, UniProt P06652 1-596)
T1 construct: Endogenous protein co-purified from S. pombe cells and detected with antibodies to Cdc25
T1 sequence (looked up): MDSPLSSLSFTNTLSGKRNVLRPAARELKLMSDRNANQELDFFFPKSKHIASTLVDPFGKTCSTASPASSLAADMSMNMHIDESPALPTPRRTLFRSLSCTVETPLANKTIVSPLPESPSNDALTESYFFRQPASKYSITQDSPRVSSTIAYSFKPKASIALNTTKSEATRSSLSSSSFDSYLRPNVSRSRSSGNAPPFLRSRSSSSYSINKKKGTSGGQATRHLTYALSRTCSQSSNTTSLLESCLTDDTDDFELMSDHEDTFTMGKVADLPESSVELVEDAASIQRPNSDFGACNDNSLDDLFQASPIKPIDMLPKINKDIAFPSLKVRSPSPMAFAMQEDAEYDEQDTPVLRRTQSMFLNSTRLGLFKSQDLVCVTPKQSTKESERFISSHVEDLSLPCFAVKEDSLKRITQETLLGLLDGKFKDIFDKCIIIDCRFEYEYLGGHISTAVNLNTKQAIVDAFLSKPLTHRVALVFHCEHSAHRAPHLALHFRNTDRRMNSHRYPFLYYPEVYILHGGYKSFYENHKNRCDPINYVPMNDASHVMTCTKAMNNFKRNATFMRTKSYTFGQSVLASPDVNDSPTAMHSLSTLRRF

T2: Weel (Schizosaccharomyces pombe, UniProt P07527 1-877)
T2 construct: Endogenous protein co-purified from S. pombe cells and detected with antibodies to Weel; also called kinase Weel; native Weel protein
T2 sequence (looked up): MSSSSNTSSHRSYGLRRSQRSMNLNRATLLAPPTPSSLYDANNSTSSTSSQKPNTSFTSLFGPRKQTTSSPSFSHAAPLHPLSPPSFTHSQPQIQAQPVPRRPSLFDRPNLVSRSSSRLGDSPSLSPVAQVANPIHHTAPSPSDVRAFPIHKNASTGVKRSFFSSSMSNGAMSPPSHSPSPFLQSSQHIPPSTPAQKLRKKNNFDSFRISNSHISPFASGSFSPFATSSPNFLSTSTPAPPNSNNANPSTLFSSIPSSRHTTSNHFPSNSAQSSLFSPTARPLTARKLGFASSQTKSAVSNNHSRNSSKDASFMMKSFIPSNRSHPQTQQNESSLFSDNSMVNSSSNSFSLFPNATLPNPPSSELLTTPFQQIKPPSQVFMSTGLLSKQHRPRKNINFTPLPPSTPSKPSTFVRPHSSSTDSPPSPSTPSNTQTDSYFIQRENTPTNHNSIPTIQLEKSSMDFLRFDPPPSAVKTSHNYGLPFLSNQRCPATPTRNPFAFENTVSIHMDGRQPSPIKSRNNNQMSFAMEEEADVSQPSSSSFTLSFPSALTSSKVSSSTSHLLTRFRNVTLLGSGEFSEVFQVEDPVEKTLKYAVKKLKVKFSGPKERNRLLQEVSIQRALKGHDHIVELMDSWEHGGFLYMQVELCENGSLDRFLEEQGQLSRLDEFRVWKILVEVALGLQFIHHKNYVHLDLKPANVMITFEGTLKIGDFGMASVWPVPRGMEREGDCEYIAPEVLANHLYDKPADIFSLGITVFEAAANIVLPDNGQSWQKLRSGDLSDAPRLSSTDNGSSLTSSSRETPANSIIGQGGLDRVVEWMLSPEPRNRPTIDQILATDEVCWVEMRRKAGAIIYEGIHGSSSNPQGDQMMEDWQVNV

B1: GST:Chk1 (other, Schizosaccharomyces pombe, UniProt P34208 1-496, looked up)
chain: MAQKLDNFPYHIGREIGTGAFASVRLCYDDNAKIYAVKFVNKKHATSCMNAGVWARRMASEIQLHKLCNGHKNIIHFYNTAENPQWRWVVLEFAQGGDLFDKIEPDVGIDEDVAQFYFAQLMEGISFMHSKGVAHRDLKPENILLDYNGNLKISDFGFASLFSYKGKSRLLNSPVGSPPYAAPEITQQYDGSKVDVWSCGIILFALLLGNTPWDEAISNTGDYLLYKKQCERPSYHPWNLLSPGAYSIITGMLRSDPFKRYSVKHVVQHPWLTSSTPFRTKNGNCADPVALASRLMLKLRIDLDKPRLASSRASQNDSGFSMTQPAFKKNDQKELDRVEVYGALSQPVQLNKNIDVTEILEKDPSLSQFCENEGFIKRLAKKAKNFYEICPPERLTRFYSRASRETIIDHLYDSLRLLAISVTMKYVRNQTILYVNLHDKRKCLLQGVIELTNLGHNLELINFIKRNGDPLEWRKFFKNVVSSIGKPIVLTDVSQN
notes: Expressed in S. pombe from the integrated nmt1:GST:chk1+ construct; Migrates at ~80 kDa; not shown: glutathione-S-transferase
B2: GST:Cds1 (other, Schizosaccharomyces pombe, UniProt Q09170 1-460, looked up)
chain: MEEPEEATQATQEAPLHVSQNIAKQVVNNENVFMKLVMTRMLDGKTEVIPLTTDVHNGFWRFGRHKSCEVVLNGPRVSNFHFEIYQGHRNDSDESENVVFLHDHSSNGTFLNFERLAKNSRTILSNGDEIRIGLGVPKDEISFLCQVPVKHSRDSQKNMIKSENSHYEIIRTLGSGTFAVVKLAVEVNSGKWYAIKIINKRKILLTSSEKRATEMFQREIDILKSLHHPGVVQCHEIFENDDELFIVMEYVEGGDLMDFLIANGSIDEQDCKPLLKQLLETLLHLHKQGVTHRDIKPENILITNDFHLKISDFGLAKVIHGTGTFLETFCGTMGYLAPEVLKSKNVNLDGGYDDKVDIWSLGCVLYVMLTASIPFASSSQAKCIELISKGAYPIEPLLENEISEEGIDLINRMLEINPEKRISESEALQHPWFYTVSTHEHRTPPSSSEHEATEQLNSSS
notes: Expressed in S. pombe from the integrated nmt1:GST:cds1+ construct; Migrates at ~82 kDa; not shown: glutathione-S-transferase

How the values were obtained:
Cdc25 [1] = target: T1, Cdc25; test: GSH-Sepharose purification of GST fusion expressed in S. pombe, immunoblot
Description: (§1) FIG. 2D is a photograph of an analysis of proteins which illustrates that Weel interacts with GST:cds1⁺ but not GST:Chk1 in vivo. Strains carrying integrated nmt1:GST:chk1⁺ or nmt1:GST:cds1⁺ constructs were grown in minimal medium (EMM2) without thiamine at 30° C. for 16 hr to induce expression of GST fusion proteins. Cells were lysed and GST fusion proteins purified with GSH-Sepharose. After extensive washing, samples were resolved by 10% SDS-polyacrylamide gel electrophoresis and subjected to immunoblotting with antibodies to Weel, Cdc25 and GST. A ˜110 kDa protein corresponding to Weel was detected in the GST:Cds1 sample, whereas a ˜80 kDa protein corresponding to Cdc25 was detected in the GST:Chk1 sample. The ˜110 kDa protein was not detected in samples prepared from Δweel cells. GST:Cds1 and GST:Chk1 migrate at positions corresponding to ˜82 and ˜80 kDa, respectively.
(§2) As a control, a strain that expressed GST:Chk1 was used. The GST fusion proteins were purified with GSH-Sepharose and analyzed by immunoblotting. Cdc25 (but not Weel) associated with GST:Chk1, whereas Weel (but not Cdc25) associated with GST:Cds1 (FIG. 2D).

Weel [2] = target: T2, Weel; test: GSH-Sepharose purification of GST fusion expressed in S. pombe, immunoblot with antibodies to Weel
Description: as §1, §2

Weel [3] = target: T2, Weel; test: GSH-Sepharose purification of GST fusion expressed in S. pombe, immunoblot
Description: as §1, §2

Cdc25 [4] = target: T1, Cdc25; test: GSH-Sepharose purification of GST fusion expressed in S. pombe, immunoblot with antibodies to Cdc25
Description: as §1, §2

Binder | binding result (Cdc25 [1]) | binding result (Weel [2]) | binding result (Weel [3]) | binding result (Cdc25 [4])
B1 | binds | no binding | – | –
B2 | – | – | binds | no binding
